The values below come from US20260027179A1 (UNIVERSITY OF BRITISH COLUMBIA, published 2026).

This assay addresses T1, Purified recombinant human α-synuclein (N-terminal histidine tagged, Sigma, S7820-500UG) (human, UniProt P37840 1-140).
T1 construct: also called immobilized α-synuclein; not shown: N-terminal histidine tag
As to the kind of experiment: Biacore 3000 SPR, α-synuclein immobilized on CM5 chip, peptide 0.20-12.50 µM injected. For orientation: Surface plasmon resonance follows binding to a sensor surface in real time, without labels.

B1: Tat-βsyn-degron peptide (peptide)
peptide: YGRKKRRQRRRRTKSGVYLVGRRRG
notes: Chemically synthesized by GL Biochem; also called α-synuclein targeting peptide
In the case of B1, the binding result is given as “binds”.
